Assay results reported in US20140206628A1 (University of Washington, published 2014).

Molecular target: A/WSN/1933 (H1N1) hemagglutinin (Influenza A virus A/WSN/1933 (H1N1))
Assay: gel filtration

B1: HB36.3 (Asp47Ser, Ala60Val) (designed binder)
chain: MSNAMDGQQLNRLLLEWIGAWDPFGLGKDAYDVEAEAVLQAVYETESAFDLAMRIMWIYVFAFNRPIPFPHAQKLARRLLELKQAASSPLPLE
  binding result: binds
